assay: soluble on expression in E. coli; label from the status in PepcDB or PDB records

| Sequence | soluble on expression in E. coli |
| --- | --- |
| MSGTKVPSLPKGKEKPCVVTFATQSDRSNEPPPQPRVRKVTTIINTLGVVVRNTTTEIGVWVFTSCVEVSFPRSNSPIFSNFTLGTWMIVGLYPDATVASCSPWPLILKAYEMSVSYGTVFMKRKASELCHEKTVLYSEVVVPLVNPYSNMSYFERDPHLTAELYMIPGFGRVLGSSAYRQYLEDNRDNVSFIVQYCGGSLRGCSWIMSVVDGKAQTDGEFSDKDLREIAEFIRERHNKENESPPLPSNSIARHAGFVTEVFPQKNYLYCWSPQVSLEADHTAKFPQPPKHREVDSPMLSPLVGQWIQFDVQSKDLDKYMSTRSGYRLSIQEYLPINSPCGVGVVQCGKIVRVMISCILVKSTDHPMLFELQMFGPVIDKKSSLISGAFMQIVLEKTSSRIRRMSGVCWRVIYSLIVSGAENMVENSQSVRIEAISQRDAMETSHIIPIEKRTITNNTGVTTLKYQQPHQNPHYQEQRRDYYMGNNIQIQTAYNSTQLRKYQPKPKKFSSYTGESLEGHALVEKIMAHAKTGILWFFDNYNSSVHFIFDDFELNVGDYAYVKLIQKKEETAHLQFRWKWISGTKKLSPFNCRIDLFQLFIEEQVSYKSKDMLNRNTYTSKNFPIIFDADGIIKNPIPGAIYCVVILRKKIQVTQTESPTHKYQWIIDSAQSNPFIITEYYNPHNAFNRSFIASKQFSSSAALSTDSKKGSSGSEKSSTSPPLKSLTPPSDE | not soluble |
| SKKGGKRFEIACYKNKVMSWRSGAEKDLDEVLQTNTVFVNVSKGQVAKKEDLSNAFGTDDLTEICKQILSKGELQVSDKERQSQLEQMFRDIATIVAEKCVNPETKRPYTVNLIERAMKDIHFSVKANKSTKQQALEVIKQLKESIQIQRAHMRLRFVLPAKDGKRLKEKLKPLIKAVENEDFDDQLEMVCLIDPGCFRDIDELIRCETKGKGTLEVLSLKDVEEGDEKLE | soluble |
| MSAEASGPAAAAAPSLEAPKPSGLEPGPAAYGLKPLTPNSKYVKLNVGGSLHYTTLRTLTGQDTMLKAMFSGRVEVLTDAGGWVLIDRSGRHFGTILNYLRDGSVPLPESTRELGELLGEARYYLVQGLIEDCQLALQQKRETLSPLCLIPMVTSPREEQQLLASTSKPVVKLLHNRSNNKYSYTSTSDDNLLKNIELFDKLALRFHGRLLFLKDVLGDEICCWSFYGQGRKIAEVCCTSIVYATEKKQTKVEFPEARIFEETLNILIYETPRGPDPALLEATGGAAGAGGAGRGEDEENREHRVRRIHVRRHITHDERPHGQQIVFKD | soluble |
| LVKVKREIIRMDHPAIRPEAGRAPAVDAATLRRWLAQGRDDQGRELVMLDTRNAFEVEVGTFRGALDWRIERFTQFPQAVRDNQAALAGKTVVSFCTGGIRCEKAAIYMAEAGIEHVYQLEGGILKYFEETDGAGFDGACFVFDERVALDAALAPQ | not soluble |
| MAHHHHHHMTESTHLIDAGCFISQMNELVLIDPLYMNYVITNYFNYLINDKNELLPKESLNGVYFENAKPGLWSSFAIKEKNIFLPNSQKMEQNMIDLGIDKNYGNEIITSFACFNNTEFMHEYLTVEKLNELKWEKFESNINCIGNHNNGNIYKSQSKEEDKPINFSNYFTNILTVESGQVGLFCTESIKNCTNALLEKYEIYDIKNKEELDNFFNKNMNDLYPWYNKICNLTLSSSITIIDYIDMPLGSVCMSGSDCVSNYLCEVVKDDITGEIWAIRVNFFNPFK | soluble |
| MTMKEKKLKIDISGVDPICNKSKGDDFYDVVNRQLSRRSFLKGGLGVAVSSFMLSPLMAGCTSSKGTARSSAGLGFQAIAGNRTDVVDVPVGYRAQPFLPWGTPLVPGAGEFKTDASNSALDQARQVGSHHDGMHFFPIDVKEGGASSKEGLLVMNHEYVDPQILHASFSPNAPRPQQEVLKEMMAHGVSVAHIIRKPDGEWQLVEGSPYNRRITASTPMQMSGPVAGHDKLVTRFSPDGTKTRGTINNCSHGHTPWGTYLTCEENWAGCFMNDDDTHPREHERYGVNRENSRYYWETATPGLDETLRFNASSTGSTAADDYRNEPNHFGWIVEIDPFNAKSTPVKRSMLGRFAHEGIVFAPAVEGEPLVAYSGDDSRFEYIYKFVSAKPYYKATASGELLNEGTLYVAQFNDDGTGRWLPLDIENSEFQAKASEAGVGFHSQADVLLNTRLAADVMGATKMDRPEWGAVHPTTKEVYFSLTNNTRRTEVQTNAVNPRAENAYGHIVRWSEDNQQSAESFHWDIFLMGGEAGTRTPNAEGKDLTLTSNNQFACPDGLWFDHRGTLWIQTDMSGELLSEGSFGNNGMYAANPESGELKRFLVGPVDCEITGVVTTPDGKTMFVNVQHPGDRLAPGKFSLEHHHHHH | soluble |
| DHYNCVSSGGQCLYSACPIFTRIQGTCYRGRARCCR | soluble |
| MTIFNKIDYNYYKLINYPIMMVHDEWLGDLTGVNQVSFRRLRETSSTRNQLNKILRQEIHDKISGVELSDINKEGFLYQSIGKIRLLALSSALFDIQCPDYIFSRLYRETLIREIGYQNVKQLSFYWQGGQCKPEYGEERFCAELIKYGAGNLEWLFADNPLWTIVKYLLPKSGEIKPTHINDLFLNRLNKILLPYETL | not soluble |
| MSQVQFSHNPLFCIDIIKTYKPDFTPRVAFILGSGLGALADQIENAVAISYEKLPGFPVSTVHGHAGELVLGHLQGVPVVCMKGRGHFYEGRGMTIMTDAIRTFKLLGCELLFCTNAAGSLRPEVGAGSLVALKDHINTMPGTPMVGLNDDRFGERFFSLANAYDAEYRALLQKVAKEEGFPLTEGVFVSYPGPNFETAAEIRMMQIIGGDVVGMSVVPEVISARHCDLKVVAVSAITNMAEGLSDVKLSHAQTLAAAELSKQNFINLICGFLRKIA | soluble |
| MGSDKIHHHHHHMEMAIYCGKTYSWANELCSKPLKEVKVVDYNSVVDWVNSQKERAFLIFGTDVIPYSLYEYPKIPVNETPLFKFMERGGVVIWTGDVPFFYIEKDGIKKELFSKGNPFPFKPISVMGHKPLSEKSENSIVGEMLKYDPKDSWRPVEPHPLLIPISIVKSHPYTLYSTWIYKYGKGAFVRLYDSPYVNTQYILSLPERLSSLGIGIRISNFRRFRDFKMIFPEFKIGVILGKNNVGKTTILEAIAMLGKNEDKIRKFRGNISTEIAETELFVNYTYYKAEFSYSQVNRSADVNVLLIYSHDIDFVIDDKVLPYVKSSLRKVTELLNSFDPNIFYVYLSSGNELRVLFNDRTDVSINELGYGYKSLLNFILLYVIYQPRIILIDDLEGFALHPDLLKMFYDLLLKIDVDLILITTQSSDIYAYLAEKRSDKVRFILINDDKYEVLTSEEVLDRLYYEDLRYTALKIH | not soluble |
| GPGGGSEAYFRVESGALGPEENFLSLDDILMSHEKLPVRTETAMPRLGAFFLERSAGAETDNAVPQGSKLELPLWLAKGLFDNKRRILSVELPKIYQEGWRTVFSADPNVVDLHKMGPHFYGFGSQLLHFDSPENADISQSLLQTFIGRFRRIMDSSQNAYNEDTSALVARLDEMERGLFQTGQKGLNDFQCWEKGQASQITASNLVQNYKKRKFTDMED | soluble |
| MQTSHSLPSAQLPLFQEAFWASNGAPLLDDVIDSPSSASIEEPAAFSELSLSGLPGHCLTLLAPILRELSEEQDARWLTLIAPPASLTHEWLRRAGLNRERILLLQAKDNAAALALSCEALRLGRSHTVVSWLEPLSRAARKQLSRAAQLGQAQSLNIRLG | soluble |
| MGSSHHHHHHSSGLVPRGSHMRQLTEEETKVVFEKLAGYIGRNISFLVDNKELPHVFRLQKDRVYYVPDHVAKLATSVARPNLMSLGICLGKFTKTGKFRLHITSLTVLAKHAKYKIWIKPNGEMPFLYGNHVLKAHVGKMSDDIPEHAGVIVFAMNDVPLGFGVSAKSTSESRNMQPTGIVAFRQADIGEYLRDEDTLFT | soluble |
| MSLKLLIEEFIPVEEISEEAKKEKLGNAKPPIFSLHYWWARKPLITARAAVLGALISKENLPMIVGNGDLKTNLLRILRIPKDINEGPRAHTQDPPAEYLKEAIIKTWGEIPTVLDPFAGGGSIPFEALRLGCNAVAVDYNPVAYLILKETLEYPKKYGMKLILEGHHHHHH | not soluble |
| EREEEPAVQGNPDESLTVEGALEYVELAPQLNLPQQEEDADFHTVAGLIMEELQTIPDVGDFADFHGWRFEVVEKEGQRIERVKITKLP | soluble |
| MSLRSGVEMAQRFARYPGAVANAARLGAACAFDVRLIAPRLPDFPVPPGHTEMSYLRELAMRGAAEKYGPPHQRPDVYRQLDYELDVIEQLGFPGYFLVVWEIVEFCRSRGILCQGRGSAANSVVCYVLGITKADPIAFRLLFERFLSPERDGPPDIDVDIESGRREEVIQYVYSRYGRERAAQVATVITYRPRSAVRDMARALGYSPGQQDAWSKQLDRYGEIPRGSEADHDVPDDVVHLARQVLGFPRHLGIHSGGMVICDRPVAEVCPVEWARMPGRSVLQWDKDDCARIGVVKFDLLGLGMLSALRECFDLIETYHGVRLSLETIPPEDPAVYDMLCAADSVGVFQVESRAQMATLPRLQPRNFYDLVTEVAIIRPGPIQGGSVHPFIRRRRGREPVRYAHPLLRHSLERTYGVPLFQEQIMQMAIDVAGLTPAEADHLRQAMGAKREGHHHHHH | soluble |
| MGSDKIHHHHHHMMQLQVNATEIKTVYEQQLFNGKNFHVFIYNKTESVTGLHQHDYYEFTLVLTGRYYQEINGKRVLLERGDFVFIPVGSNHQSFYEFGATRILNVGISKRFFEQHYLPLLPFCFVASQVYRANSTFLTYIETVIASLNFRGNGLDEFIEVVTFYIINRLRHYREEQVYDDIPQWLKATVEIMHDKTQFGEHALENMVRLSAKSQEYLTRATRRYYSKTPMQIINEIRINFAKKQLEMTNYSVTDIAYEAGYSSPSLFIKTFKKMTSFTPNSYRKRLTEINE | not soluble |
| MEEKQILCVGLVVLDVISLVDKYPKEDSEIRCLSQRWQRGGNASNSCTVLSLLGAPCAFMGSMAPGHVADFLVADFRRRGVDVSQVAWQSKGDTPSSCCIINNSNGNRTIVLHDTSLPDVSATDFEKVDLTQFKWIHIEGRNASEQVKMLQRIDAHNTRQPPEQKIRVSVEVEKPREELFQLFGYGDVVFVSKDVAKHLGFQSAEEALRGLYGRVRKGAVLVCAWAEEGADALGPDGKLLHSDAFPPPRVVDTLGAGDTFNASVIFSLSQGRSVQEALRFGCQVAGKKCGLQGFDGIV | soluble |
| MSLSQNSESGNYRKYTSRNPLMGIVVSGFMKDLSETIAPLEEVGSIIDIGCGEGFIINCLNRKDITGVDVSKKALNIAKQKNPGCNFCTGSIYDLSFKKSSFDLVIATEVLEHLENPERALREIKRISKKYCIFSVPNEPYFRTMNFLRGKNLTRLGNDIEHLQNWSTKEFVKLVGRHFNVVEVKRPFPWTMVLCEKEGHHHHHH | not soluble |
| MGVYPPSEDSFLIIEYASCSGKAIEIGCGTGIVSICFLKRGCDIEAVDISDLAVECAKDNASRNGLTLKVYRSDLFSGVSGTYDTILFNAPYIPVEGEDASWSGGRNLEVVSRFLGQAREHLSASGQIYIVLSDLTDNEGMFRMMGYDYFIIKKISFEFEAIVLYKLTLKALEHHHHHH | not soluble |
| MSLNDNPAWFNNPRKRAIPNSIIKRSNGQSLSPVRSDSADVPAFSNSNGFNNVTFGSKKDPRILKNVSPNDNNSANNNAHSSDLGTVVFDSNEAPPKTSLADWQKEDGIFSSKTDNIEDPNLSSNITFDGKPTATPSPFRPLEKTSRILNFFDKNTKTTPNTASSEASAGSKEGASTNWDDHAIIIFGYPETIANSIILHFANFGEILEDFRVIKDFKKLNSKNMSKSPSLTAQKYPIYTGDGWVKLTYKSELSKSRALQENGIIMNGTLIGCVSYSPAALKQLASLKKSEEIINNKTSSEGHHHHHH | soluble |

From the DeepSol protein solubility set
